Laboratory results: article PMC8125234, “Cardiolipin Stabilizes and Increases Catalytic Efficiency of Carnitine Palmitoyltransferase II and Its Variants S113L, P50H, and Y479F” (International Journal of Molecular Sciences, 2021)

B1: CPT II variant P50H (Homo sapiens; P50H) (protein)
chain: SAGSGPGQYLQRSIVPTMHYQDSLHRLPIPKLEDTIRRYLSAQKPLLNDGQFRKTEQFCKSFENGIGKELHEQLVALDKQNKHTSYISGPWFDMYLSARDSVVLNFNPFMAFNPDPKSEYNDQLTRATNMTVSAIRFLKTLRAGLLEPEVFHLNPAKSDTITFKRLIRFVPSSLSWYGAYLVNAYPLDMSQYFRLFNSTRLPKPSRDELFTDDKARHLLVLRKGNFYIFDVLDQDGNIVSPSEIQAHLKYILSDSSPAPEFPLAYLTSENRDIWAELRQKLMSSGNEESLRKVDSAVFCLCLDDFPIKDLVHLSHNMLHGDGTNRWFDKSFNLIIAKDGSTAVHFEHSWGDGVAVLRFFNEVFKDSTQTPAVTPQSQPATTDSTVTVQKLNFELTDALKTGITAAKEKFDATMKTLTIDCVQFQRGGKEFLKKQKLSPDAVAQLAFQMAFLRQYGQTVATYESCSTAAFKHGRTETIRPASVYTKRCSEAFVREPSRHSAGELQQMMVECSKYHGQLTKEAAMGQGFDRHLFALRHLAAAKGIILPELYLDPAYGQINHNVLSTSTLSSPAVNLGGFAPVVSDGFGVGYAVHDNWIGCNVSSYPGRNAREFLQCVEKALEDMFDALEGKSIKS
notes: made in house; host or cells: Escherichia coli BL21Gold DE

What was measured:
[1] = test system: CPT II WT; parameters: method as in PMID 26477380; settings: cited from earlier work
[2] = test system: CPT II S113L; parameters: method as in PMID 27123472; settings: in vitro; cited from earlier work
[3] = Thermosensitivity of enzyme activity of recombinant CPT II enzymes (activity half-life after incubation); format: physicochemical; settings: 30 °C; 1 mg/mL enzyme
Experimental: To evaluate the enzyme behavior under different temperature conditions that are relevant under physiological conditions, we chose 30 (cold), 37 (normal), 40 (moderate fever) and 42 °C (high fever) for the experiments. The enzyme variants were expressed recombinantly in E. coli, carried a N-terminal histidine-tag and were purified by standard chromatography in the presence of a detergent (for experimental details, see Section 4.1 and Section 4.2). The impact of temperature was investigated by incubating purified CPT II variants at appropriate temperatures and determining their enzymatic activity after defined incubation periods. The enzyme assay was based on an adaptation of Rufer et al. for the transfer reaction of the palmitic acid from palmitoyl-CoA to L-carnitine (see Section 4.3).
Before activity measurements, the storage buffer of the enzymes was replaced with assay buffer (50 mM KH2PO4, 120 mM KCl, 1 mM EDTA-Na4) using vivaspin turbo 4 tubes (Satorius Stedim biotech GmbH, Göttingen, Germany) at 4 °C. […] After that, the protein concentration was determined using bicinchoninic acid (BCA) protein assay kit (Thermo Fisher Scientific GmbH, Berlin, Germany). […] The reverse reaction of CPT II was detected with the enzyme activity assay. […] The released CoA was then detected by the reaction of the free thiol group with DTNB, forming 5-mercapto-(2-nitrobenzoic acid). […]

[4] = Onset of aggregation by scattered light back reflection during heating ramp; format: physicochemical; settings: assay buffer; heating ramp 15 °C to 80 °C
Experimental: Supplementary materials can be found at https://www.mdpi.com/article/10.3390/ijms22094831/s1, Figure S1: Scattered light back reflection as measure for aggregation during the heating ramp from 15 °C to 80 °C of CPT II WT (black) and the variants P50H (red), S113L (blue) and Y479F (green) in assay buffer (magenta). The light scattering data were obtained simultaneously with nanoDSF data using the back reflection technology in a Prometheus NT.48 device. The unfolding of proteins leads to display of hydrophobic regions of the protein on the surface, which is followed by hydrophobic interaction of the protein molecules resulting in aggregation events. These aggregates are then detected via light scattering. […] The data allow the detection of onset of aggregation (Tagg) which differs clearly among the variants. The Tagg for WT is 38 °C, Y479F is 37 °C, S113L is 35 °C and P50H is 32 °C. […] Figure S2: The first derivatives of the transition curves of WT and the variants resulting from the ratio 350/330 nm were plotted against the temperature. The black, red, blue and green solid lines show the curves of WT and variants P50H, S113L and Y479F measured in assay buffer, respectively. The black, red, blue and green dashed lines show the maxima of the values of the first derivatives of the ratio 350 nm/330 nm of WT and variants P50H, S113L and Y479F, respectively. Figure S3: The effect of amino acid exchange in absence and presence of n-octyl-β-d-glucopyranoside (β-OG) on the stability of CPT II (1 mg/mL) assessed by nanoDSF. The TM of WT (37 °C) in buffer was used as reference value (ΔTM = 0 °C) to determine the ΔTM for the variants and the ΔTM for WT and variants in presence of β- OG. Error bars are SD derived from three independent experiments. Table S1. Comparison of the mean values of the half-lives (t1/2) of CPT II WT and the variants at 30 °C with the half-lives at 37, 40 or 42 °C. The differences of the half-lives for each CPT II enzyme between 37 and 40 or 42 °C as well as 40 and 42 °C are not significant. Number of experiments for each variant (n ≥ 3). Table S2. Comparison of the mean values of the half-lives (t1/2) between CPT II WT and the variants Y479F, S113L and P50H at 30, 37, 40 or 42 °C. n ≥ 3. Table S3. […] Comparison of the ∆TM-values of CPT II WT and the variants Y479F, S113L and P50H in buffer or in presence of 0.25 mM cardiolipin or 1% n-octyl-β-d-glucopyranoside (β-OG) assessed by nanoDSF (n ≥ 3). […] Comparison of the transition temperatures (TM) of WT and the variants Y479F, S113L and P50H in buffer with of 0.25 mM cardiolipin or 1% n-octyl-β-d-glucopyranoside (β-OG) assessed by nanoDSF (n ≥ 3). […]

[5] = nanoDSF thermostability of recombinant CPT II enzymes in assay buffer; format: physicochemical; settings: assay buffer; 1 mg/mL protein; nanoDSF
Experimental: The protein stability was investigated applying nano differential scanning fluorimetry (nanoDSF) using a protein concentration of 1 mg/mL in assay buffer. […] The heating rate has been set to 1 °C per min. A heating ramp from 15 to 95 °C was determined. The nanoDSF data were obtained using a Prometheus NT.48 device. First derivatives were calculated using PR.ThermControl software (NanoTemper Technologies GmbH, Munich, Germany). Experiments were performed at least three times independently as double determination.

[6] = substrate: C[N+](C)(C)C[C@H](O)CC(=O)[O-]; experiment: Determination of the kinetic parameters kcat and KM; format: biochemical, human; settings: other: P50H, L-carnitine varied, absence of CL, 25 °C
Experimental: Before activity measurements, the storage buffer of the enzymes was replaced with assay buffer (50 mM KH2PO4, 120 mM KCl, 1 mM EDTA-Na4) using vivaspin turbo 4 tubes (Satorius Stedim biotech GmbH, Göttingen, Germany) at 4 °C. The pH of assay buffer was adjusted with KOH to 7.4. The storage buffer was diluted at least 1:500 in assay buffer. In addition, before each experimental set up, the protein samples were centrifuged at 16,000× g for 5 min at 4 °C to remove any micro-aggregates. After that, the protein concentration was determined using bicinchoninic acid (BCA) protein assay kit (Thermo Fisher Scientific GmbH, Berlin, Germany). The enzyme activity of recombinant CPT II was performed following Rufer et al. with modifications described elsewhere. […] After pre-conditioning the mixture to 25 °C for 2 min, the reaction was started by adding 15 nM of recombinant enzyme. The reverse reaction of CPT II was detected with the enzyme activity assay. CPT II catalyzed the transfer of fatty acid residue from Pal-CoA to L-carnitine with release of CoA and Pal-carnitine. The released CoA was then detected by the reaction of the free thiol group with DTNB, forming 5-mercapto-(2-nitrobenzoic acid). This compound has a molar extinction coefficient of 13,600 M^−1 cm^−1 at a wavelength of 410 nm, and its formation was followed spectroscopically. […] The slope of the progress curve was used to determine the reaction velocity.
It is assumed that the reaction catalyzed by CPT II represents a ping-pong mechanism or compulsory order ternary-complex mechanism.
The kinetic parameters were determined by evaluating the obtained v/S characteristic according to the Michaelis–Menten Equation (1). The […] kcat was calculated using Equation (2):(1) v=Vmax∗[S]/KM+[S] (2) kcat=Vmax/cenzyme

Molecule	Inhibition by malonyl-CoA [1]	Inhibition by malonyl-CoA [2]	Time to complete loss of activity [3] [min]	Onset of aggregation (Tagg) [4] [°C]	TM in Buffer [5] [°C]	Km [6] [mM]	kcat [6] [s⁻¹]	kcat/Km [6] [M⁻¹ s⁻¹]
CC(C)(COP(=O)(O)OP(=O)(O)OC[C@H]1O[C@@H](n2cnc3c(N)ncnc32)[C@H](O)[C@@H]1OP(=O)(O)O)[C@@H](O)C(=O)NCCC(=O)NCCSC(=O)CC(=O)O [malonyl-CoA, Malonyl-CoA]	not inhibited	abnormal enzyme inhibition						
B1			≤ 25	32	26.2 ± 0.3	12.8 ± 2.7	138 ± 4.9	10800 ± 2600
